Earlier results on one substance are cited in paper PMC8144458.

Common to all, as to assay: NMR
What all share (conditions): HdeA without client protein

For data set [1], the target named is Asp47 (UniProt position 68, KDKPEDAVLDV).
Data set [2] concerns the target Asp51 (UniProt position 72, EDAVLDVQGIA).
The target in data set [3] is Glu46 (UniProt position 67, NKDKPEDAVLD).

As a reminder, the pKa is the pH at which an ionisable group is half protonated. In the case of “Acid stress chaperone HdeA (Escherichia coli)”, the results for the pKa in data set [1], in data set [2] and in data set [3] were 4.14, 3.83 and 4.07, respectively.
